Each block holds one substance with its values, some of them ahead of it.
Experiments:
[1] = biological target: Human Siglec-9 (human) (UniProt Q9Y336); assay: flow cytometry on fresh purified human NK cells (CD3-/CD56+), isotype control staining
[2] = biological target: Human Siglec-7 (human) (UniProt Q9Y286); assay: as above
[3] = biological target: Human Siglec-9 (human) (UniProt Q9Y336); assay: flow cytometry titration on neuraminidase-treated moDCs, goat F(ab')2 anti-human IgG (Fc) PE; table under the right panel; the curve itself is flat
[4] = biological target: Human Siglec-9 (human) (UniProt Q9Y336); assay: flow cytometry titration on untreated monocyte-derived dendritic cells (moDCs), goat F(ab')2 anti-human IgG (Fc) PE; table under the left panel; the curve itself is flat

Sequence of Human Siglec-9 (human) (Q9Y336 18-463): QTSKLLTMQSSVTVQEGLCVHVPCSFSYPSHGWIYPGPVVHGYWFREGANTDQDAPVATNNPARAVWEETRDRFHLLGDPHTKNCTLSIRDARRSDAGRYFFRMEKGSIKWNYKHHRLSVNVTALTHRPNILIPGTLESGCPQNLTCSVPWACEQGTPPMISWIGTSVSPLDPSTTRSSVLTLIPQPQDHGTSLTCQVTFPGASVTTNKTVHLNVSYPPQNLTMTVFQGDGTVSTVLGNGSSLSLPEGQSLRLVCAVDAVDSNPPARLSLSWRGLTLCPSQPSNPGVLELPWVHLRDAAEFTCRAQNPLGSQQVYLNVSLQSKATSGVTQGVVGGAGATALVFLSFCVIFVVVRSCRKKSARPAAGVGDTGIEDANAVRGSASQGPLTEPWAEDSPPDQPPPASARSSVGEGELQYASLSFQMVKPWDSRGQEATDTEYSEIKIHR
Sequence of Human Siglec-7 (human) (Q9Y286 19-467): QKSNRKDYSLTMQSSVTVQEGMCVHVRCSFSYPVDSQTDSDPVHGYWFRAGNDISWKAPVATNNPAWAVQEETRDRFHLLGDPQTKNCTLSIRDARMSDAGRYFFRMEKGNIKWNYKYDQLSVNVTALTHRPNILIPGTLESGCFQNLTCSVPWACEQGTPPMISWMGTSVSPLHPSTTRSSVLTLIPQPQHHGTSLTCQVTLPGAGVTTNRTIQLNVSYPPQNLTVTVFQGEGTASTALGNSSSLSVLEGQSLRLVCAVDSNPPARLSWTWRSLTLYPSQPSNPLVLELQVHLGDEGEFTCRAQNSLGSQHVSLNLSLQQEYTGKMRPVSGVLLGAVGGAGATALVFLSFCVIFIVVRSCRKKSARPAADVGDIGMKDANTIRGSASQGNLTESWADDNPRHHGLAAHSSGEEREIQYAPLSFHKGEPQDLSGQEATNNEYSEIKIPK

percent of NK cells in quadrant Q2 (APC positive, PE positive) [1]: 0.34% | percent of NK cells in quadrant Q3 (PE positive, APC negative) [1]: 2.54%
Substance: Isotype control - PE (antibody)

percent of NK cells in quadrant Q1 (APC positive, PE negative) [2]: 0.975% | percent of NK cells in quadrant Q2 (APC positive, PE positive) [2]: 0.34%
Substance: Isotype control - APC (antibody)

EC50 [3]: 1.22 µg/mL | EC50 [4]: 2.24 µg/mL
Substance: Isotype control (antibody)
